Data taken from US20100255008A1.

These binders were tested against Mouse soluble TWEAK (mouse) (UniProt O54907) (assay: receptor interaction ELISA: antibody pre-incubated with mouse soluble TWEAK, binding to coated mouse Fn14:Fc).

IC50 | Binder
5 ng/mL | Antibody 15 (antibody, V domains shown) VH: QVQLQESGPGLVKPSETLSLTCAVSGYSIRSGYWWSWIRQPPGKGLEWIGQIYNKGNTDNNPALKSRVTISVDTSKNQFSLKLSSVTAADTAVYYCARVFWDDAYFDVWGQGTMVTVSS VL: EIVLTQSPATLSLSPGERATLSCKASQSVSIGPIHLMHWYQQKPGQAPRLLIYGASNPESGIPARFSGSGSGTDFTLTISSLEPEDFAVYYCQQGKESPRTFGQGTKLEIK
7 ng/mL | Antibody 19 (antibody, V domains shown) VH: QVQLQESGPGLVKPSETLSLTCAVSGYSIRSGYWWSWIRQQPGKGLEWIGQIYNKGNTDNNPALKSQVTISVDTSKNQFSLKLSSVTAADTAVYYCARVFWDDAYFDVWGQGTMVTVSS VL: EIVLTQSPATLSLSPGERATLSCKASQSVSIGPIHLMHWYQQKPGQAPRLLIYGASNPESGIPARFSGSGSGTDFTLTISSLEPEDFAVYYCQQGKESPRTFGQGTKLEIK
8 ng/mL | Antibody 24 (antibody, V domains shown) VH: QVQLQESGPGLVKPSETLSLTCTVSGYSIRSGYWWSWIRQPPGKGLEWIGQIYNKGNTDNSPSLKSRVTISVDTSKNQFSLKLSSVTAADTAVYYCARVFWDDAYFDVWGQGTMVTVSS VL: EIVLTQSPGTLSLSPGERATLSCKASQSVSIGPIHLMHWYQQKPGQAPRLLIYGASNPESGIPDRFSGSGSGTDFTLTISRLEPEDFAVYYCQQGKESPRTFGQGTKLEIK
36 ng/mL | Antibody 26 (antibody, V domains shown) VH: QVQLQESGPGLVKPSETLSLTCAVSGYSIRSGYWWSWIRQQPGKGLEWIGQIYNKGNTDNSPSLKSQVTISVDTSKNQFSLKLSSVTAADTAVYYCARVFWDDAYFDVWGQGTMVTVSS VL: EIVLTQSPGTLSLSPGERATLSCKASQSVSIGPIHLMHWYQQKPGQAPRLLIYGASNPESGIPDRFSGSGSGTDFTLTISRLEPEDFAVYYCQQGKESPRTFGQGTKLEIK
6 ng/mL | Antibody 18 (antibody, V domains shown) VH: QVQLQESGPGLVKPSETLSLTCTVSGYSIRSGYWWSWIRQPPGKGLEWIGQIYNKGNTDNSPSLKSRVTISVDTSKNQFSLKLSSVTAADTAVYYCARVFWDDAYFDVWGQGTMVTVSS VL: EIVLTQSPATLSLSPGERATLSCKASQSVSIGPIHLMHWYQQKPGQAPRLLIYGASNPESGIPARFSGSGSGTDFTLTISSLEPEDFAVYYCQQGKESPRTFGQGTKLEIK
5 ng/mL | Antibody 21 (antibody, V domains shown) VH: QVQLQESGPGLVKPSETLSLTCAVSGYSIRSGYWWSWIRQPPGKGLEWIGQIYNKGNTDNNPALKSRVTISVDTSKNQFSLKLSSVTAADTAVYYCARVFWDDAYFDVWGQGTMVTVSS VL: EIVLTQSPGTLSLSPGERATLSCKASQSVSIGPIHLMHWYQQKPGQAPRLLIYGASNPESGIPDRFSGSGSGTDFTLTISRLEPEDFAVYYCQQGKESPRTFGQGTKLEIK
7 ng/mL | Antibody 16 (antibody, V domains shown) VH: QVQLQESGPGLVKPSETLSLTCAVSGYSIRSGYWWSWIRQPPGKGLEWIGQIYNKGNTDNSPSLKSRVTISVDTSKNQFSLKLSSVTAADTAVYYCARVFWDDAYFDVWGQGTMVTVSS VL: EIVLTQSPATLSLSPGERATLSCKASQSVSIGPIHLMHWYQQKPGQAPRLLIYGASNPESGIPARFSGSGSGTDFTLTISSLEPEDFAVYYCQQGKESPRTFGQGTKLEIK
14 ng/mL | Antibody 20 (antibody, V domains shown) VH: QVQLQESGPGLVKPSETLSLTCAVSGYSIRSGYWWSWIRQQPGKGLEWIGQIYNKGNTDNSPSLKSQVTISVDTSKNQFSLKLSSVTAADTAVYYCARVFWDDAYFDVWGQGTMVTVSS VL: EIVLTQSPATLSLSPGERATLSCKASQSVSIGPIHLMHWYQQKPGQAPRLLIYGASNPESGIPARFSGSGSGTDFTLTISSLEPEDFAVYYCQQGKESPRTFGQGTKLEIK
5 ng/mL | Antibody 22 (antibody, V domains shown) VH: QVQLQESGPGLVKPSETLSLTCAVSGYSIRSGYWWSWIRQPPGKGLEWIGQIYNKGNTDNSPSLKSRVTISVDTSKNQFSLKLSSVTAADTAVYYCARVFWDDAYFDVWGQGTMVTVSS VL: EIVLTQSPGTLSLSPGERATLSCKASQSVSIGPIHLMHWYQQKPGQAPRLLIYGASNPESGIPDRFSGSGSGTDFTLTISRLEPEDFAVYYCQQGKESPRTFGQGTKLEIK
18 ng/mL | Antibody 25 (antibody, V domains shown) VH: QVQLQESGPGLVKPSETLSLTCAVSGYSIRSGYWWSWIRQQPGKGLEWIGQIYNKGNTDNNPALKSQVTISVDTSKNQFSLKLSSVTAADTAVYYCARVFWDDAYFDVWGQGTMVTVSS VL: EIVLTQSPGTLSLSPGERATLSCKASQSVSIGPIHLMHWYQQKPGQAPRLLIYGASNPESGIPDRFSGSGSGTDFTLTISRLEPEDFAVYYCQQGKESPRTFGQGTKLEIK
6 ng/mL | Antibody 23 (antibody, V domains shown) VH: QVQLQESGPGLVKPSETLSLTCTVSGYSIRSGYWWSWIRQPPGKGLEWIGQIYNKGNTDNNPALKSRVTISVDTSKNQFSLKLSSVTAADTAVYYCARVFWDDAYFDVWGQGTMVTVSS VL: EIVLTQSPGTLSLSPGERATLSCKASQSVSIGPIHLMHWYQQKPGQAPRLLIYGASNPESGIPDRFSGSGSGTDFTLTISRLEPEDFAVYYCQQGKESPRTFGQGTKLEIK
6 ng/mL | Antibody 17 (antibody, V domains shown) VH: QVQLQESGPGLVKPSETLSLTCTVSGYSIRSGYWWSWIRQPPGKGLEWIGQIYNKGNTDNNPALKSRVTISVDTSKNQFSLKLSSVTAADTAVYYCARVFWDDAYFDVWGQGTMVTVSS VL: EIVLTQSPATLSLSPGERATLSCKASQSVSIGPIHLMHWYQQKPGQAPRLLIYGASNPESGIPARFSGSGSGTDFTLTISSLEPEDFAVYYCQQGKESPRTFGQGTKLEIK
4.6 ng/mL | TW212 (antibody) VL: DIVLTQSPAYLTMSPGQTTTISCKASQSVSIGPIHLMHWYQQKPGQPPRLLIYGASNPESGVPARFSGSGSGTDFTLTIHPVEADDAATYFCQQGKESPRTFGPGTKLEITRADAKPTVSIFPPSSEQLGTGSATLVCFVNNFYPKDINVKWKVDGSEKRDGVLQSVTDQDSKDSTYSLSSTLSLTKADYERHNLYTCEVTHKTSTAAIVKTLNRNEC VH: QVQLQESGPGLLKPAQSLSLTCTVTGYSIRSGYWWSWIRQQPGKGLEWMGQIYNKGNTDNNPSLKSQITMTVDTSKNQFFLRLRSVTTEDTAVYYCARVFWDDAYFDVWGQGIQVTVSSATTTAPSVYPLAPACDSTTSTTNTVTLGCLVKGYFPEPVTVSWNSGALTSGVHTFPSVLHSGLYSLSSSVTVPSSTWPSQTVTCNVAHPASSTKVDKKIVPGDGSGCKPCTCPGPEVSSVFIFPPKPKDVLTISLSPKVTCVVVDISQDDPEVQFSWFIDGKEVHTAVTQPREEQFNSTYRMVSVLPILHQDWLNGKEFKCKVNSPAFPVPIEKTISKRRGQLQVPQVYTMPPPKEQLTQSQVSLTCMIKGFYPEDIDVAWQKNGQPEQSFKNTPPVLDTDETYFLYSKLDVKKDDWEKGDTFTCSVVHEALHNHHTEKTLSQRPGK
5.1 ng/mL | TW205 (antibody, V domains shown) VH: QIHLQESGLGLVKPSQSLTLTCSVTGFSITTPDYSWHWIRQFPGQTLEWMGFLYYEGDTYYNPSLKSRISIARDASKNQFFLQLKSVTTEDTATYFCVRRKYSGYGNWFAYWGQGTQVTVSS VL: QPVLTQAPSASASLRASVKLTCTLSSQHSTYYIEWYQQHPDKAPRYVMYVDSDGSHIKGDGVPDRFSGSSSGARRYLSISNLQPEDEAIYHCGVYDSTAGAVFGSGTQLTVLG
9 ng/mL | TW202 (antibody, V domains shown) VH: QLQLQESGLGLVKPSQSLTLTCSVTGFSITTPDYSWHWIRQLPGQTLEWMGFLYYEGDTYYNPSLKSRISIARDASKNQFFLQLKAVTTEDTATYFCARRKYSGYGNWFAYWGQGTLVTVSL VL: QPVLTQSPSASASLRASVKLTCTLSSQHSTYYIEWYQQRPDKAPKYVMYLDSDGSHIKGDGIPDRFSGSSSGAHRYLSISNLQPEDEAIYHCGVYDSTAGAVFGSGTQLTVLG
